# Source: article PMC11943158
# Like-named read-outs stand apart in the source and are kept apart here.
# Legend:
# [1] = O-GlcNAc at S355
# Flag Western blot = details: glycan lost; control: Gli2-WT
# [2] = cycloheximide chase, Flag Western blot; details: glycan lost
Protein,degradation_or_half_life [1],expression_or_secretion [1],expression_or_secretion (Flag Western blot),degradation_or_half_life ([2]; control: Gli2-WT),"degradation_or_half_life, half_life ([2]; control: PM without OSMI)"
Gli2: S355A (protein) parent chain: METSAPAPALEKKEAKSGLLEDSSFPDPGKKACPLAVAAAVAAHGVPQQLLPAFHAPLPIDMRHQEGRYHYDPHSVHSVHGPPTLSGSPVISDISLIRLSPHPAGPGESPFSAHHPYVNPHMEHYLRSVHSSPTLSMISAARGLSPADVAHEHLKERGLFSLAAPGTNPSDYYHQMTLMASHPTPYGDLLMQSGGAASAPHLHDYLNPVDASRFSSPRVTPRLSRKRALSISPLSDASLDLQRMIRTSPNSLVAYINNSRSSSAASGSYGHLSAGALSPAFTFPHPINPVAYQQILSQQRGLGSAFGHTPPLIQPSPTFLAQQPMTLTSISTMPTQLSSSSSNCLNDANQNKQNSESAVSSTVNPITIHKRSKVKTEAEGLRPASPLGLTQEQLADLKEDLDRDDCKQEAEVVIYETNCHWADCTKEYDTQEQLVHHINNEHIHGEKKEFVCRWQACTREQKPFKAQYMLVVHMRRHTGEKPHKCTFEGCSKAYSRLENLKTHLRSHTGEKPYVCEHEGCNKAFSNASDRAKHQNRTHSNEKPYICKIPGCTKRYTDPSSLRKHVKTVHGPDAHVTKKQRNDVHVRAPLLKENGDNEASAEPGGRGPEESVEASSTSHTVEDCLHIKAIKTESSGLCQSSPGAQSSCSSEPSPLGSAPNNDSGMEMPGTGPGSLGDLTALADTCPGADTSALAAPSTGGLQLRKHMSTVHRFEQLKREKLKSLKDSCSWAGPAPHTRNTKLPPLPVNGSVLENFNNTGGGGPAGLLPSQRLPELTEVTMLSQLQERRDSSTSTMSSAYTVSRRSSGISPYFSSRRSSEASPLGGLRPHNASSADSYDPISTDASRRSSEASQCSGGGPGLLNLTPAQQYNLRAKYAAATGGPPPTPLPGLDRVSLRTRLALLDAPERALPGACPHPLGPRRGSDGPTYSHGHGHGYAGAAPAFPHEGPNSSTRRASDPVRRPDPLILPRVQRFHSTHNMNPGSLPPCADRRGLHVQSHPSVDSNLTRNAYSPRPPSINENVVMEAVAAGVDGPGLECDLGLVEDELVLPDDVVQYIKAHTGGTLDDGIRQGYPTEGTGFPENSKLPSPGLQGHRRLAAADSNMGPSAPGLGGCQLSYSPSSNLNKSNMPVQWNEVSSGTVDALPTQVKPPPFPHSNLAVVQQKPAFGQYPGYNPQSVQSSSGGLDSTQPHLQLRGAPSASRGSYTQQPRQPAAGSQCLGMSAAMSPQASYSQAHPQLSPNIVSGSLNQFSPSCSNMAAKPSHLGLPQQMEVVPNATIMNGHQREHGVPNSSLAAVSQPHPVLSYPQQDSYQQGSNLLSSHQPGFMESQQNAGFGLMQPRPPLEPNTASRHRGVRSGQQQLYARTTGQAMVTSANQETAEAMPKGPAGTMVSLAPQPSQDTGRAQDQNTLYYYGQIHMYEQNGGCPAVQPQPPQPQACSDSIQPEPLPSPGVNQVSSTVDSQLLEPPQIDFDAIMDDGDHSSLFSGALSPTLLHNLSQNSSRLTTPRNSLTLPSIPAGISNMAVGDMSSMLTSLAEESKFLNMMT,decreases,decreases,decreases,decreases,
Gli2: OSMI (protein) parent chain: METSAPAPALEKKEAKSGLLEDSSFPDPGKKACPLAVAAAVAAHGVPQQLLPAFHAPLPIDMRHQEGRYHYDPHSVHSVHGPPTLSGSPVISDISLIRLSPHPAGPGESPFSAHHPYVNPHMEHYLRSVHSSPTLSMISAARGLSPADVAHEHLKERGLFSLAAPGTNPSDYYHQMTLMASHPTPYGDLLMQSGGAASAPHLHDYLNPVDASRFSSPRVTPRLSRKRALSISPLSDASLDLQRMIRTSPNSLVAYINNSRSSSAASGSYGHLSAGALSPAFTFPHPINPVAYQQILSQQRGLGSAFGHTPPLIQPSPTFLAQQPMTLTSISTMPTQLSSSSSNCLNDANQNKQNSESAVSSTVNPITIHKRSKVKTEAEGLRPASPLGLTQEQLADLKEDLDRDDCKQEAEVVIYETNCHWADCTKEYDTQEQLVHHINNEHIHGEKKEFVCRWQACTREQKPFKAQYMLVVHMRRHTGEKPHKCTFEGCSKAYSRLENLKTHLRSHTGEKPYVCEHEGCNKAFSNASDRAKHQNRTHSNEKPYICKIPGCTKRYTDPSSLRKHVKTVHGPDAHVTKKQRNDVHVRAPLLKENGDNEASAEPGGRGPEESVEASSTSHTVEDCLHIKAIKTESSGLCQSSPGAQSSCSSEPSPLGSAPNNDSGMEMPGTGPGSLGDLTALADTCPGADTSALAAPSTGGLQLRKHMSTVHRFEQLKREKLKSLKDSCSWAGPAPHTRNTKLPPLPVNGSVLENFNNTGGGGPAGLLPSQRLPELTEVTMLSQLQERRDSSTSTMSSAYTVSRRSSGISPYFSSRRSSEASPLGGLRPHNASSADSYDPISTDASRRSSEASQCSGGGPGLLNLTPAQQYNLRAKYAAATGGPPPTPLPGLDRVSLRTRLALLDAPERALPGACPHPLGPRRGSDGPTYSHGHGHGYAGAAPAFPHEGPNSSTRRASDPVRRPDPLILPRVQRFHSTHNMNPGSLPPCADRRGLHVQSHPSVDSNLTRNAYSPRPPSINENVVMEAVAAGVDGPGLECDLGLVEDELVLPDDVVQYIKAHTGGTLDDGIRQGYPTEGTGFPENSKLPSPGLQGHRRLAAADSNMGPSAPGLGGCQLSYSPSSNLNKSNMPVQWNEVSSGTVDALPTQVKPPPFPHSNLAVVQQKPAFGQYPGYNPQSVQSSSGGLDSTQPHLQLRGAPSASRGSYTQQPRQPAAGSQCLGMSAAMSPQASYSQAHPQLSPNIVSGSLNQFSPSCSNMAAKPSHLGLPQQMEVVPNATIMNGHQREHGVPNSSLAAVSQPHPVLSYPQQDSYQQGSNLLSSHQPGFMESQQNAGFGLMQPRPPLEPNTASRHRGVRSGQQQLYARTTGQAMVTSANQETAEAMPKGPAGTMVSLAPQPSQDTGRAQDQNTLYYYGQIHMYEQNGGCPAVQPQPPQPQACSDSIQPEPLPSPGVNQVSSTVDSQLLEPPQIDFDAIMDDGDHSSLFSGALSPTLLHNLSQNSSRLTTPRNSLTLPSIPAGISNMAVGDMSSMLTSLAEESKFLNMMT,"decreases, PM extended half-life from approximately 6 to 24 h; OSMI eliminated this",,,,decreases
